Positions count from the first letter of the chain named. Numbers in names are those of the source.
B1: anti-CD3 antibody mutant VL-R56C conjugated with Molecule I (+20K) (antibody, V domains shown)
VH: EVQLVESGGGLVQPGGSLRLSCAASGFTFSTYAMNWVRQAPGKGLEWVGRIRSKYNNYATYYADSVKDRFTISRDDSKNSLYLQMNSLKTEDTAVYYCARHGNFGNSYVSWFAYWGQGTLVTVSS
VL: QTVVTQEPSLTVSPGGTVTLTCRSSTGAVTTSNYANWVQQKPGQAPRGLIGGTNKCAPGVPARFSGSLLGDKAALTLLGAQPEDEAEYFCALWYSNLWVFGGGTKLTVL
modifications: Molecule I (+20K, shown only as a drawing) conjugated on Cys 56
B2: anti-CD3 antibody mutant VH-S53C conjugated with Molecule I (+20K) (antibody, V domains shown)
VH: B1 VH with S53C
VL: B1 VL with C56R
modifications: Molecule I (+20K, shown only as a drawing) conjugated on Cys 53
B3: anti-CD3 antibody mutant VL-Y34C conjugated with Molecule I (+20K) (antibody, V domains shown)
VH: B1 VH
VL: B1 VL with Y34C, C56R
modifications: Molecule I (+20K, shown only as a drawing) conjugated on Cys 34
B4: anti-CD3 antibody mutant VL-K55C conjugated with Molecule I (+20K) (antibody, V domains shown)
VH: B1 VH
VL: B1 VL with K55C, C56R
modifications: Molecule I (+20K, shown only as a drawing) conjugated on Cys 55
B5: anti-CD3 antibody mutant VH-W111C conjugated with Molecule I (+20K) (antibody, V domains shown)
VH: B1 VH with W111C
VL: B1 VL with C56R
modifications: Molecule I (+20K, shown only as a drawing) conjugated on Cys 111
B6: anti-CD3 antibody mutant VL-Y94C conjugated with Molecule I (+20K) (antibody, V domains shown)
VH: B1 VH
VL: B1 VL with C56R, Y94C
modifications: Molecule I (+20K, shown only as a drawing) conjugated on Cys 94
B7: anti-CD3 antibody mutant VH-M34C conjugated with Molecule I (+20K) (antibody, V domains shown)
VH: B1 VH with M34C
VL: B1 VL with C56R
modifications: Molecule I (+20K, shown only as a drawing) conjugated on Cys 34
B8: anti-CD3 antibody mutant VL-N54C conjugated with Molecule I (+20K) (antibody, V domains shown)
VH: B1 VH
VL: B1 VL with N54C, C56R
modifications: Molecule I (+20K, shown only as a drawing) conjugated on Cys 54
B9: anti-CD3 antibody mutant VL-W93C conjugated with Molecule I (+20K) (antibody, V domains shown)
VH: B1 VH
VL: B1 VL with C56R, W93C
modifications: Molecule I (+20K, shown only as a drawing) conjugated on Cys 93
B10: anti-CD3 antibody mutant VL-N96C conjugated with Molecule I (+20K) (antibody, V domains shown)
VH: B1 VH
VL: B1 VL with C56R, N96C
modifications: Molecule I (+20K, shown only as a drawing) conjugated on Cys 96
B11: anti-CD3 antibody mutant VH-Y61C conjugated with Molecule I (+20K) (antibody, V domains shown)
VH: B1 VH with Y61C
VL: B1 VL with C56R
modifications: Molecule I (+20K; cleavable linker with PEG20K, shown only as a drawing) conjugated on Cys 61
B12: anti-CD3 antibody mutant VH-F104C conjugated with Molecule I (+20K) (antibody, V domains shown)
VH: B1 VH with F104C
VL: B1 VL with C56R
modifications: Molecule I (+20K, shown only as a drawing) conjugated on Cys 104
B13: anti-CD3 VH-Y61C mutant conjugated with PEG5K, after activation (antibody, V domains shown)
VH: B1 VH with Y61C
VL: B1 VL with C56R
modifications: Cys 61 with what is left of the linker after activation (PEG5K blocker released); structure not given
B14: anti-CD3 VH-Y61C mutant conjugated with PEG20K, after activation (antibody, V domains shown)
VH: B1 VH with Y61C
VL: B1 VL with C56R
modifications: Cys 61 with what is left of the linker after activation (PEG20K blocker released); structure not given
B15: anti-CD3 VH-Y61C mutant conjugated with PEG10K, after activation (antibody, V domains shown)
VH: B1 VH with Y61C
VL: B1 VL with C56R
modifications: Cys 61 with what is left of the linker after activation (PEG10K blocker released); structure not given
B16: anti-CD3 VH-Y61C mutant conjugated with PEG40K, after activation (antibody, V domains shown)
VH: B1 VH with Y61C
VL: B1 VL with C56R
modifications: Cys 61 with what is left of the linker after activation (PEG40K blocker released); structure not given
B17: anti-CD3 antibody mutant VH-M34C (antibody, V domains shown)
VH: B1 VH with M34C
VL: B1 VL with C56R
B18: anti-CD3 antibody mutant VH-F104C (antibody, V domains shown)
VH: B1 VH with F104C
VL: B1 VL with C56R
B19: anti-CD3 antibody mutant VL-Y94C (antibody, V domains shown)
VH: B1 VH
VL: B1 VL with C56R, Y94C
B20: anti-CD3 antibody mutant VH-W111C (antibody, V domains shown)
VH: B1 VH with W111C
VL: B1 VL with C56R
B21: anti-CD3 antibody mutant VH-Y61C (antibody, V domains shown)
VH: B1 VH with Y61C
VL: B1 VL with C56R
B22: anti-CD3 antibody mutant VL-R56C (antibody, V domains shown)
VH: B1 VH
VL: B1 VL
B23: anti-CD3 antibody mutant VL-N54C (antibody, V domains shown)
VH: B1 VH
VL: B1 VL with N54C, C56R
B24: anti-CD3 antibody mutant VL-K55C (antibody, V domains shown)
VH: B1 VH
VL: B1 VL with K55C, C56R
B25: anti-CD3 antibody mutant VH-S53C (antibody, V domains shown)
VH: B1 VH with S53C
VL: B1 VL with C56R
B26: anti-CD3 antibody mutant VL-W93C (antibody, V domains shown)
VH: B1 VH
VL: B1 VL with C56R, W93C
B27: anti-CD3 antibody mutant VL-Y34C (antibody, V domains shown)
VH: B1 VH
VL: B1 VL with Y34C, C56R
B28: anti-CD3 antibody mutant VL-N96C (antibody, V domains shown)
VH: B1 VH
VL: B1 VL with C56R, N96C
B29: anti-CD3 VH-Y61C mutant conjugated with cleavable linker and R1 = PEG5K (antibody, V domains shown)
VH: B1 VH with Y61C
VL: B1 VL with C56R
modifications: cleavable linker peptide P with blocker PEG5K on Cys 61
B30: anti-CD3 VH-Y61C mutant conjugated with cleavable linker and R1 = PEG10K (antibody, V domains shown)
VH: B1 VH with Y61C
VL: B1 VL with C56R
modifications: cleavable linker peptide P with blocker PEG10K on Cys 61
B31: anti-CD3 VH-Y61C mutant conjugated with cleavable linker and R1 = PEG40K (antibody, V domains shown)
VH: B1 VH with Y61C
VL: B1 VL with C56R
modifications: cleavable linker peptide P with blocker PEG40K on Cys 61

These binders were tested against CD3 (antibody antigen coated on the ELISA plate in Examples 1 to 3) (Homo sapiens (Human)) (UniProt P07766) (assay: binding activity of the conjugated mutant compared with the wild-type antibody (ELISA as in Example 1)).
Sequence of CD3 (antibody antigen coated on the ELISA plate in Examples 1 to 3) (Homo sapiens (Human)) (P07766 23-126 limits assumed): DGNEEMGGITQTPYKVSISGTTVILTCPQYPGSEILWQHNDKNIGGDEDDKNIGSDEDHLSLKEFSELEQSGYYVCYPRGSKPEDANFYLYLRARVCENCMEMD

| Blocking fold after conjugation (+20K) [fold] | Binder |
| --- | --- |
| 6 | B1 |
| 3 | B2 |
| 8 | B3 |
| 5 | B4 |
| 6 | B5 |
| 30 | B6 |
| 5 | B7 |
| 12 | B8 |
| 5 | B9 |
| 2 | B10 |
| 400 | B11 |
| 13 | B12 |

These binders were tested against CD3 (antibody antigen coated on the ELISA plate in Examples 1 to 3) (Homo sapiens (Human)) (UniProt P07766) (assay: binding activity after activation of the conjugate; method not described).

| Recovery of binding force after activation (%) | Binder |
| --- | --- |
| 100 | B13 |
| 100 | B14 |
| 100 | B15 |
| 100 | B16 |

These binders were tested against CD3 (antibody antigen coated on the ELISA plate in Examples 1 to 3) (Homo sapiens (Human)) (UniProt P07766) (assay: ELISA, antigen coated, anti-human IgG-HRP; against wild-type anti-CD3 antibody).

| Binding strength of mutants (EC50 mutant/EC50 wild-type) | Binder |
| --- | --- |
| 1.1 | B17 |
| 1 | B18 |
| 1 | B19 |
| 2 | B20 |
| 5.1 | B21 |
| 1.5 | B22 |
| 1 | B23 |
| 0.9 | B24 |
| 1.2 | B25 |
| 1.8 | B26 |
| 1.2 | B27 |
| 1 | B28 |

These binders were tested against CD3 (antibody antigen coated on the ELISA plate in Examples 1 to 3) (Homo sapiens (Human)) (UniProt P07766) (assay: binding activity after conjugation with different R1; method not described).

| Blocking fold after conjugation [fold] | Binder |
| --- | --- |
| 10 | B29 |
| 20 | B30 |
| 500 | B31 |
| 400 | B11 |
